Legend:
[1] = biological target: NF-kB p65 (RelA) homodimer (UniProt Q04206); test: EMSA; conditions: 1:1 stoichiometry of p65 to the 22-mer site
NF-kB p50 homodimer = NF-kB p50 homodimer (UniProt P19838); conditions: quoted in comparison with XBY-6
Chain of NF-kB p50 homodimer (P19838 1-433): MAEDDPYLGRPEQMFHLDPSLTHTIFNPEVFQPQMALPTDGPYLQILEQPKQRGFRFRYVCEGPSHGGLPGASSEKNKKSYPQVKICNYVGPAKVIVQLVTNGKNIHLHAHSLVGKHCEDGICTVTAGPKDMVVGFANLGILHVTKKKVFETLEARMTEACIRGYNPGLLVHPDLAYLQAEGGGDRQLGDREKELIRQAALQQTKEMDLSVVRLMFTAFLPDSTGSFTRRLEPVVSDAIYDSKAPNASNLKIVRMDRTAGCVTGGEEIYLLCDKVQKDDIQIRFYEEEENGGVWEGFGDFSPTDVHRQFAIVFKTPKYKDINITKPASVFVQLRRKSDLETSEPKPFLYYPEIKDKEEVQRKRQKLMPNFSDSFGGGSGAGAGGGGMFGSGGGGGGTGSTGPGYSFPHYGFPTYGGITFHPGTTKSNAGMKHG

Chain of NF-kB p65 (RelA) homodimer (Q04206 whole entry): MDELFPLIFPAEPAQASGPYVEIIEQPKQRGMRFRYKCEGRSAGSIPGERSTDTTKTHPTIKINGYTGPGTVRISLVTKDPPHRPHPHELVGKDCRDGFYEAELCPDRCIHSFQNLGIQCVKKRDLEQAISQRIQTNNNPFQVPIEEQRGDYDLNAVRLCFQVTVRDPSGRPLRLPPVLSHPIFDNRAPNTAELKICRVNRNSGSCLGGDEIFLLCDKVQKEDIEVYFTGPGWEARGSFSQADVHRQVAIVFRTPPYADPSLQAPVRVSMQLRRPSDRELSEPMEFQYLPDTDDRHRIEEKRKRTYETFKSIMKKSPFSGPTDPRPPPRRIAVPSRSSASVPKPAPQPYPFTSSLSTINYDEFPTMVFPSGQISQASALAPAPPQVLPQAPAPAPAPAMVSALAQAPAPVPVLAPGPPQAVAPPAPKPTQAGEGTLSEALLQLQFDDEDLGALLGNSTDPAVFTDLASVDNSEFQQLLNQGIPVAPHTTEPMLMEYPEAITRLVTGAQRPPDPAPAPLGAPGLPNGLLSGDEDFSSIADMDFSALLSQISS

IgkB promoter element 22-mer
Kd [1]: 4 nM | Kd (NF-kB p50 homodimer): 4 nM
